Assay results published in patent publication US20180298101A1 (published 2018).
Read-outs that look alike come from different tables or passages of the source. Non-standard residues stand in square brackets, D forms with d. No end group written: not given here. pY = N[C@@H](Cc1ccc(OP(=O)(O)O)cc1)C(=O)O

Legend:
Experiment in all cases: ITC
[1] = target: T1, hCIS-SH2-BC complex (ternary complex of human GST-CIS-SH2 construct, residues 66-258 with PEST region 174-202 … (UniProt Q9NSE2 66-258; Q15370 1-118; P83940 17-112)
[2] = target: T2, human CIS lacking both the N-terminal region (residues 1-66) and the PEST motif (ΔNT/ΔPEST) in trimeric … (UniProt Q9NSE2 67-258; Q15370 1-118; Q15369 17-112)
[3] = target: T1, hCIS-SH2-BC complex (ternary complex of …); remark: listed apart in the source
[4] = target: human full-length CIS in trimeric complex with elongin B and elongin C (UniProt Q9NSE2 1-258; Q15370 1-118; Q15369 17-112)
[5] = target: T2, human CIS lacking both the N-terminal …; remark: listed apart in the source
[6] = target: human CIS lacking the PEST motif (ΔPEST) in trimeric complex with elongin B and elongin C (UniProt Q9NSE2 1-258; Q15370 1-118; Q15369 17-112)

B1: JAK3 activation loop phosphopeptide (Tyr980 phosphorylated) (peptide)
peptide: LLPLDKDYYVVREPGQ
modifications: not fully specified (residue 8)
Kd [1]: 800 nM

B2: JAK1-Y1034 phosphopeptide with an alanine substitution at the +3 position (peptide)
peptide: AIETDKE[pY]YTAKDDRD
Kd [2]: 8300 nM

B3: JAK1-Y1034 phosphopeptide with an alanine substitution at the +5 position (peptide)
peptide: AIETDKE[pY]YTVKADRD
Kd [2]: 6300 nM

B4: JAK1-Y1034 phosphopeptide with an alanine substitution at the -3 position (peptide)
peptide: AIETAKE[pY]YTVKDDRD
Kd [2]: 3500 nM

B5: IL-2Rβ cytoplasmic domain phosphopeptide (Tyr361 phosphorylated) (peptide)
peptide: YDP[pY]SEEDPDEG
Kd [1]: 1500 nM | Kd [3]: 1500 nM

B6: IL-2Rβ cytoplasmic domain phosphopeptide (Tyr355 phosphorylated) (peptide)
peptide: CQV[pY]FTYDPYSE
Kd [1]: 940 nM | Kd [3]: 940 nM

B7: IL-2Rβ cytoplasmic domain phosphopeptide (Tyr392 phosphorylated) (peptide)
peptide: DDA[pY]CTFPSRDD
Kd [1]: 1800 nM | Kd [3]: 1800 nM

B8: JAK1 activation loop phosphopeptide (Tyr1034 phosphorylated) (peptide)
peptide: AIETDKE[pY]YTVKDDRD
Kd [4]: 5300 nM | Kd [5]: 2200 nM | Kd [6]: 5300 nM | Kd [1]: 2100 nM | Kd [2]: 2200 nM
